Laboratory results taken from patent publication US9873733B2, “Anti-staphylococcal antibodies” (priority 2012, dated 2018).

Experiments:
[1] = biological target: cyclic peptide representing loop 4 of MprF (Staphylococcus aureus, UniProt Q2G2M2); details: IgG in PBS; biotinylated cyclic peptide 5 μg/ml
Method: The IgGs were tested for binding to the antigen, which was used in their selection. Also binding to other MprF-peptides was tested to check for selectivity.
For ELISAs with cyclic antigen, the biotinylated cyclic peptides (final conc. 5 μg/ml) were incubated with IgGs in PBS. Then the mix was transferred to a pre-blocked Neutravidin plate (Thermo Scientific), incubated and then the plate was washed with PBS containing 0.5% of TWEEN20. MprF-specific IgGs were detected using goat-anti-human IgG (Sigma).
In both cases washing was performed using PBST ([…] with 0.05% TWEEN20. Detection was performed using alkaline phosphatase coupled Goat anti-human IgG (Sigma Cat. # A-8542 and Attophos™ substrate Roche, Cat. #11681982001). Fluorescence was measured at an excitation of 440±25 nm and an emission of 550±35 nm. Full signal intensity is typically reached after 5-15 min at room temperature.

[2] = system: MprF on S. aureus (Protein A deletion mutant, delta spa); test: Whole cell ELISA on S. aureus; assay type: binding, Staphylococcus aureus; details: E. coli as negative control
Method: (§1) The specificity of the purified antibodies was tested for binding to whole cell Staphylococcus aureus in an ELISA assay. Escherichia coli bacteria were used as a negative control.
(§2) For ELISA on S. aureus the Protein A deletion mutant (delta spa) or the mutant with an additional deletion in MprF (delta spa delta mprf) were grown to mid log phase, than washed in PBS and resuspended in saline to a final OD600 of 0.6. This bacterial culture was coated on Maxisorp plates (Nunc). Plates were blocked with 2% BSA/PBS and washed with TSB containing 0.5% TWEEN20.

[3] = system: S. aureus mutants lacking MprF expression (delta spa delta mprF); test: Whole cell ELISA on S. aureus mutant lacking MprF; assay type: binding, Staphylococcus aureus; details: compared with delta spa
Method: as §1, §2

S. aureus SA113 Δspa [4] = test: Killing of S. aureus by nisin with MprF antibodies; assay type: cell-based, Staphylococcus aureus; details: antibody 100 μg/ml, 22.5 μg/ml nisin, 2 hours; anti-lysozyme antibody as control
Method: In this experiment killing of Staphylococcus aureus was tested. Nisin was used as an exemplary cationic antimicrobial compound. Nisin was tested in combination with selected antibodies of the present invention. An anti-lysozyme antibody was used as a negative control.
(§3) Overnight cultures of S. aureus SA113 Δspa were diluted in fresh MHB medium and adjusted to OD600 0.25 (˜1.5×10^7 cells). Antibodies were adjusted to a concentration of 1 mg/ml and 10 μl were applied per well of a 96 well plate and diluted in 90 μl of the adjusted cell suspension (final antibody concentration: 100 μg/ml). Cells were grown in the presence of anti-lysozyme antibody (control) or with the anti-MprF antibodies. Duplicates were employed for each assay. After 3 hours of incubation under shaking conditions at 37° C., optical density was determined, adjusted to OD600 0.025 in 500 μl ice cold PBS buffer. 80 μl of the adjusted cell suspension were diluted with 20 μl of antimicrobial substances to final concentrations of 22.5 μg/ml nisin. After incubation for 2 hours under shaking conditions at 37° C., the cell suspensions were diluted 1:2000 and 100 μl of each duplicate was plated in triplicates on TSB medium containing agar plates to obtain a representative value of bacterial survival. Cells treated without antimicrobial substance were set at 100% and survival values were calculated with cells treated with antimicrobial substances. At least three independent assays were employed.

S. aureus SA113 Δspa [5] = test: Killing of S. aureus by daptomycin with MprF antibodies; assay type: cell-based, Staphylococcus aureus; details: antibody 100 μg/ml, 12.5 μg/ml Daptomycin; anti-lysozyme antibody as control
Method: as §3
The previous experiment was repeated, but instead of nisin, daptomycin is used. […]

S. aureus SA113 Δspa [6] = test: Killing of S. aureus by LL-37 with MprF antibodies; assay type: cell-based, Staphylococcus aureus; details: antibody 100 μg/ml, 45.0 μg/ml LL-37; anti-lysozyme antibody as control
Method: as §3
The previous experiment was repeated, but instead of nisin LL-37 is used. […]

[7] = system: S. aureus SA113 Δspa (flippase reaction of MprF); test: Cytochrome C repulsion assay; assay type: cell-based, Staphylococcus aureus; details: pre-incubation 3 hours, compared to anti-lysozyme antibodies
Method: The repulsion of positively charged cytochrome C has been repeatedly employed to investigate charge dependent cell surface modifications in bacteria, including the flippase reaction of MprF, which leads to increased positively charged lipids in the outer leaflet of the membrane and to increased repulsion of cytochrome C (Ernst et al., PLoS Pathogens 2009). Briefly, cells were grown in the presence of M-C4.1 or anti-lysozyme for 3 hours, followed by incubation with cytochrome C for 15 minutes and measurement of optical density of the supernatant in order to determine repulsion of positively charged cytochrome C. The established cytochrome C repulsion assay was scaled down to accommodate for the reduced amount of bacteria employed in the killing-assays.

[8] = system: S. aureus SA113 Δspa (MprF-mediated flipping of lysyl-phosphatidylglycerol); test: Annexin V assay; assay type: cell-based, Staphylococcus aureus; details: flow cytometry; anti-lysozyme pre-treated cells set at 100%
Method: Annexin V binds preferentially to negatively charged phospholipids and is therefore a useful tool for measuring the relative content of MprF-mediated flipping of lysyl-phosphatidylglycerol, as translocation leads to reduced accessibility of negatively charged phospholipids in the outer leaflet of the membrane and therefore to reduced binding of annexin V. Cells (S. aureus SA113 Δspa) were grown in the presence of M-C4.1 or anti-lysozyme antibody and then treated with annexin V for 15 minutes before being analyzed by flow cytometry for surface-bound fluorophore (FL-4 channel). Data are expressed in relative fluorescence units and compared to cells pre-treated with anti-lysoyzme set at 100% fluorescence.

[9] = system: Staphylococcus aureus clinical isolate 703; test: Killing of clinical isolate 703 by daptomycin; assay type: cell-based; details: 11 μg/ml daptomycin; anti-lysozyme antibody as control
Method: as §3
In this experiment killing of Staphylococcus aureus clinical isolate 703 (described in Jones et al., AAC 2008) by daptomycin in the presence of an MprF specific antibody was analyzed. […]

B1: M-C4.1: human IgG1 against cyclic peptide, loop 4 of MprF; VH1A kappa 1; VL Seq. ID: 44, VH Seq. ID: 45 (antibody, V domains shown)
VH: QVQLVQSGAEVKKPGSSVKVSCKASGGTFNSYAISWVRQAPGQGLEWMGGIIPIFGMATYAQKFQGRVTITADESTSTAYMELSSLRSEDTAVYYCARSLFGRAYWGQGTLVTVSS
VL: DIQMTQSPSSLSASVGDRVTITCRASQSISSFLAWYQQKPGKAPKLLIYDASSLQSGVPSRFSGSGSGTDFTLTISSLQPEDFATYYCLQADSTSYTFGQGTKVEIKRT
modifications: MC41 VH; MC41 VL
notes: human IgG1 against cyclic peptide, loop 4 of MprF; VH1A kappa 1; ID: 45
In the case of B1, the “Specific binding to cyclic loop 4 peptide (ELISA)” value [1] is reported as “specifically bind to cyclic loop 4 peptide in a dose-dependent manner”, the “Binding to whole cell S. aureus (ELISA)” value [2] is reported as “detect MprF on S. aureus” and the “Binding to S. aureus mutants lacking MprF expression (ELISA)” value [3] is reported as “significantly weaker binding”. The “Sensitivity of S. aureus towards nisin (killing, bacterial survival)” value (S. aureus SA113 Δspa [4]) was “most pronounced effects”, the “Sensitivity of S. aureus towards daptomycin (killing)” value (S. aureus SA113 Δspa [5]) was “increased the sensitivity of Staphylococcus aureus towards daptomycin” and the “Sensitivity of S. aureus towards LL-37 (killing)” value (S. aureus SA113 Δspa [6]) was “increased the sensitivity of Staphylococcus aureus towards LL-37”. For the same molecule, the “Decreased repulsion of cytochrome C” value [7] was 40%, the “Increased binding of annexin V” value [8] was 70% and the “Susceptibility of S. aureus 703 to daptomycin (killing) with MprF antibody” value [9] was “restored susceptibility of S. aureus 703 bacteria to daptomycin”.
